In assay [1] the target is prefusion-stabilized PRD-0038 S2 subunit trimer (PRD-0038 (clade 3 sarbecovirus)). Nature of the assay: negative-stain EM.
Assay [2] deals with prefusion-stabilized SARS-CoV-1 S2 subunit trimer (SARS-CoV-1). In words: negative-stain EM.

This passage reports stoichiometry N results from doi:10.1101/2023.12.12.571160.

In turn, “prefusion-stabilized PRD-0038 S2 subunit trimer (domain or fragment)” gave a stoichiometry N in assay [1] of 3.
On to “prefusion-stabilized SARS-CoV-1 S2 subunit trimer (domain or fragment)”, for which the stoichiometry N in assay [2] was found to be 3.
